The data set can be described thus: soluble on expression in E. coli; label from the status in PepcDB or PDB records.
“MSLIVTLPEPTGPYEIGVTNFHWVDPDREEVEGVNGNRELMVRIWYPAELTEGGLKAPYAFDPSYTELVSKELPYYYKALLYSVIQTETHSFANVPVADHGAPYPVLILSPGYGNSNFMYTSQAETLASHGYIVCSIEHTYYTGLPTLFPDGRIVYEQIDLEDGRDLDEEITVWVDDVQFVLDQLQKWNESDPQNLLNGRLDMDRVGMLGHSFGGATTAQVMHQDPRIRAGVNMDGFLFGSLIEEGLDYPFMYMSGVEEVSMEGPDGKKVEEAELPEEFREFIADDKRRKEGALKNNGLYVVIENAEHESFSDWMLYSPLLLDRDLPMLDQINKTLLDFFDEHLKEGHHHHHH”: the “soluble on expression in E. coli” value was “soluble”.

For the sequence “MAGHSMREHEVYSKLRAPPSSRMILRLDGRGFHRLTESLDFDRPYDEAFRDLMIRTCLDLMEEFSPSLIYTFSDEINVLLDSVPFAGRVEKLDSVFSGFASSSFTRGALEAGFSPVKPVSFDCRVIPISSDIVPEYFRSRQDESWRNCLNSYAYWTLRREVGARRAAERLRGLKSDSLHDLLFERGVNISRVPAWQRRGVGVYRVPHRVRGYNPIRDEEVSAVRMRVKVDLELPLFTDEFFEGLMRLEHHHHHH”, the “soluble on expression in E. coli” value was “not soluble”.

As to “MGSDKIHHHHHHMGTKKNFVLDTNVILHDYNCLKNFQENDIYLPIVVLEELDKFKKGNEQINYNAREFVRELDLITDDSLFTHGAPLGEGLGKLFIVTGDSEAPKVHESFPARKPDHQILAVAEYLARKYPKMKNILVTKDVNLRMKARSIGILCEDYITDKVVNVDIFEKSNEVFENIEPDLIDRIYSSREGLDISEFDFKDIIRPNECFILKSDRSSVLARYNPFTHTVCRVNKTKNYGIEPRNAEQSFAFEILNDPDIKLVALTGKAGTGKTLLALAAALGKLTEYKQILLARPIVALSNKDLGFLPGDATEKVAPYMQPLFDNLNVIKRQFASNSTEVKRLEDMQKSEQLVIEALAFIRGRSLSETYCIIDEAQNLTPHEIKTIITRAGEGTKMVFTGDIQQIDQPYLDSQSNGLVYMIDRMKDQNLFAHVNLVKGERSELSELASNLM”, the “soluble on expression in E. coli” value was “not soluble”.

As for “MGSDKIHHHHHHMMKTELHFKKSLLVSAVALATFALAGCANTAPQGKYVDGVHHVSGKGKKSDITLEVKVEQGNITQVKTLSHKETESLYLNAERLLPEIVSHNGHEGIDAISGATYSSNGILKAINDLPRIDGTKPEYQSVGARSQTGDDDFKLKWSIQPRLGLVKGDYYFEEARFRQGHMGSMLVVVDSNNLQDVILAEFNESGRPNYYTRLYQNVPKRMSEYNFSMGKKKGTAWVQSALTMEKLMMEKDQLTFELNPNYDPKLGNQLTEPNRLKYQGIDIVAGASNSIQQSMIPLTAKIHNRIQAGASDALFYQQAEKLLDEKGRWTGVTAMLRLVVDKNSHKITHAHYDEIFADEKKDIQDASLKAFYRQSKYDSINYVEPARIGFNVMIDALSLHLKEGGSLFNINDLPAAGDTGSYAQTGFTKRSDAWDNYLRLAGILYKQMRADGVINEHALPAQ”, the “soluble on expression in E. coli” value is “not soluble”.

Take “MENLASPPDISFVIAAYNAADTIEAAVQSALDQRGVTLEVIVVDDRSADDTITFVEAIAAIDPRVRLLALEENRGPGGARNAGIEAATGRWIAVLDSDDVIRPERSACMMCRAEAANAAVAVDNLDVVYTDGRPMETMFPEEFLEERAVLTLEDFISSNILFRSTFNFGYMKPMFRRDFLNNEGLRFREDIRIGEDYILLASALAAGGLCVIEPKPGYIYNIREGSISRVLELHHVEAMMRADQEFLSHYTLLPAAMDAQQARARSLQLAHNFLTLVENIKRRSVLGALKTTIRDPAVLGHLRMPIAVRLRRLRDAMFAPAAKIQGLEHHHHHH”: the “soluble on expression in E. coli” value is reported as “soluble”.

With “MGSDKIHHHHHHMRVLAAMSGGVDSAVAAARAVEAGHDVVGVHLALSRMPGTLRTGSRGCCTIEDSRDAWRACDVLGIPYYVWDFSERFKEDVVQDFIDEYAAGRTPNPCMRCNERIKFAALLEKAIALGFDAVCTGHYAKVITDADGNPELHRAADWAKDQSYVLGVLTHEQLKHSMFPLADTPSKAEVRAEAERRGLSVANKPDSHDICFIPDGDTAGWLAEKIEMTTGDIVDEAGTKVGEHPGANAFTVGQRRGLKLGTPAADGKPRFVLEIRPKENKVVVGPEALLAIDEIRGIKVSWAGLPIAEVATGDEFDCHAQVRAHGDPVPATARMERLTDDDGAERTNLVVTLATPLRGVAPGQTVVLYQGSRVLGQATIDTARSLQRAAL”, the “soluble on expression in E. coli” value is reported as “not soluble”.

Take “MYQIISDSACDLTELYVKKHNIEIVPLTASLDGETYLKDKTEINRKDFYTTMVENPDIFPKTSLPSVESYETVFRKYAEQNIPVVCFTISIHLSGSYNSASMAKDVVEEDYPDAKIVVLDSQQDTVSQALIIDQVVRMQNDGIPFDTMIENTKKLMGTARIFFTVGSLDYLRIGGRIGKMAISATGKLGIKPIIILKDGEVNLGGVGRNRGKLKKNLIQIADKYLTENGKDNFVVSIGYGYDAIEGVAFKDEVEAGLGVKLNGDTNVEIGVITAVHTGPHAIGIGVIQKYETLK”: the “soluble on expression in E. coli” value is recorded as “not soluble”.

Take “MQSRQRLLISVLAAGESRRFQGAKLAQSLATSTSEDRGQSLLQRHIACLANFIVSPNDRRESLGALDAELLVVIGAHQTLLRPQLEALGAVKLTLLDNPHWRTGLASSLGVAAAYAKVHQFDGMLLTLADQVALTLNDYRQLIETWQNCRKSVAAHYSSQIGELDELGAPAIFNASILDSLTDLTGDRGAKSILKQLAYVGELEAVALPNAAIDIDTKADLALWLALKELEHHHHHH”: the “soluble on expression in E. coli” value is given as “not soluble”.

“MDALELLINRRSASRLAEPAPTGEQLQNILRAGMRAPDHKSMQPWHFFVIEGEGRERFSAVLEQGAIAAGSDDKAIDKARNAPFRAPLIITVVAKCEENHKVPRWEQEMSAGCAVMAMQMAAVAQGFGGIWRSGALTESPVVREAFGCREQDKIVGFLYLGTPQLKASTSINVPDPTPFVTYFHH”: the “soluble on expression in E. coli” value is listed as “soluble”.

As to “MATWQGTNGGLLAGIGGVNSNAPSVNDIGNTLQLIRQNNDIERSGANNVGLTALQGLSGIAGVFQQEKQAQRQKEFQQAYANAYASGDRGALRQLATQYPDQIESVRKGMGFIDEEQRNSIGTLAAGARLASSSPEAMQSWLQNNAGELARVGVNPHDVAQMYQQNPRQFGEFVDHLGMNSLGPEKYFDLQDKMQGRQVTMRGQDLDSQTAARNQAITMRGQDIQANLGQQRINLDAETNRINNENKRLDRMLSAETNDLKRQEIQSRIAANNQQLQQKQQALNDGYKDGINTLTTSMFTLNDIVSSPSLKSITGLRGVIPNVPGSQAADTQARLDTFKSQAYLTAVQAMRGMGALSDAEGKKLDQAVGSLQNSQSEESFRRNAGVILNTLNQKRNEAVGKYVQQNGIKRVEAPQASIDYLKQHPELSIDFINRYGYLPSLGQ”, the “soluble on expression in E. coli” value is listed as “soluble”.

For “MGSDKIHHHHHHMHYEHSRKGNHMIKINHLTITQNKDLRDLVSDLTMTIQDGEKVAIIGEEGNGKSTLLKILMGEALSDFTIKGNIQSDYQSLAYIPQKVPEDLKKKTLHDYFFLDSIDLDYSILYRLAEELHFDSNRFASDQEIGNLSGGEALKIQLIHELAKPFEILFLDEPSNDLDLETVDWLKGQIQKTRQTVIFISHDEDFLSETADTIVHLRLVKHRKEAETLVEHLDYDSYSEQRKANFAKQSQQAANNQRAYDKTMEKHRRVKQNVETALRATKDSTAGRLLAKKMKTVLSQEKRYEKAAQSMTQKPLEEEQIQLFFSDIQPLPASKVLVQLEKENLSIDDRVLVQKLQLTVRGQEKIGIIGPNGVGKSTLLAKLQRLLNDKREISLGFMPQDYHKKLQLDLSPIAYLSKTGEKEELQKIQSHLASLNFSYPEMQHQIRSLSGGQQGKLLLLDLVLRKPNFLLLDEPTRNFSPTSQPQIRKLFATYPGGLITVSHDRRFLKEVCSIIYRMTEHGLKLVNLEDL”, the “soluble on expression in E. coli” value is given as “not soluble”.

Turning to “MFLSVFELFKIGIGPSSSHTMGPMTAANMFLREIMRCNFLRSSHTGISHIRVYLYGSLAFTGVGHATDRAVILGLLGEEAATVNPDNIDILLEKVTREKKVQPDGHPAYWFNLQSDLIFKRKEVLPGHTNGLAFEGLDADGNVLLRQTYYSIGGGFVVTEDELNCINGNTQSKTSKVPYPFDSARKMLSMAEKSGLSIAEMKRLNEETKMERSALNTGLDNIFSAITKCIDRGLSQEGELPGGLRVSRRAKKLYETLLENQKKNRNYPLLANDWLSVYAIAVNEENAAGGRVVTAPTNGAAGVVPAVLRYYLQFNDNSDQEGIHNFLLTAAAIGGVIKHNASISGAEVGCQGEVGTASSMAAAGLTAVLGGTPAQIENAAEIALEHHLGMTCDPVAGLVQIPCIERNAMGAVKAVTASSLALHGNGKHFVSLDACIETMRQTGHDMSERYKETSKAGLAVNAISC”, the “soluble on expression in E. coli” value is on record as “not soluble”.

As to “MSLKHLGQTRSALHGSHAVITPETFVRTALAEWPGSAIVLHIAPVVGLGARFVQFTAEMPAGAQATESVYQRFAFVLSGEVDVAVGGETRTLREYDYVYLPAGEKHMLTAKTDARVSVFEKPYQTVEGVQAPGVYWGNERENPGYPFEGDDHLIARKLLPDEPAFDFMVSTMSFAPGASLPYAEVHYMEHGLLMLEGEGLYKLEENYYPVTAGDIIWMGAHCPQWYGALGRNWSKYLLYKDMNRHPLEGGSHHHHHH”, the “soluble on expression in E. coli” value is given as “soluble”.

Turning to “MIKNGTLKPGDKLLPVHQLAEQFQVGRSAVREALSALRAMGLIEMKQGEGTYVKNFDSSSLTKSLNNRLLMKKEDILNLLEVRKVLEVGAVRVAAAKRTEDNLQNMKHWLDEMAKSIGDEKAGEKADFQFHMGIAESSHNNILLELMNHVSEMIAETIGESRRIILYGEQTTSERLIEEHQVIYDAVLKQDVELAQQAMLDHLTNVEHIVTGKNDINS”, the “soluble on expression in E. coli” value is “not soluble”.

As to “SKRVNSCVKDEEHVLEELETEGERQLKSLLQHQLDTSVSIEECVSKKKSFAPGTMYKPFGKEAAGTMTLSQFQTLHEKDQETASLRELGLNETEILIWKSHVSGEKRTKLRATPEAIQKRLEDIKERISERQRILCLPQRFSKSKQLTRREMEIEKSLFQGTDRHSFLKALYYQDEPPKKNKGDPMNNLEHFYRETIMKKRLEEFQLLRGESFACHSLVSAASVSGSGTAEKPSLLQDKGKQAAQGKGPRLHVAKLIDFPTEQYWTGPKTLKQPIEFIPEDEIQRNRLSEEEIRNIPMFSSYNPGEPNKVLYLKNLSPRVKERDLISLFARFQEKKGPPIQFRMMTGRMRGQAFLTFPNKDIAWQALHQINGYKLYGKILVIEFAKSKKQQSAVQRSSLITSAPDGRTEINGS”, the “soluble on expression in E. coli” value is given as “soluble”.

As to “FPRVSQELKTALSTLQQTFVVSDATQPHCPIVYASSGFFTMTGYSSKEIVGRNCRFLQGPDTDKNEVAKIRDCVKNGKSYCGRLLNYKKDGTPFWNLLTVTPIKDDQGNTIKFIGMQVEVSKYTEGVNDK”, the “soluble on expression in E. coli” value is “soluble”.

For “EPEEEQITVLENGSWLIDGDTPVNKLKYVLSVDSFPGEEQGYYLTIAGLIMYILQRIPKTGDHMEFNGLRYEVVDMDGIRIDKVMVTKVP”, the “soluble on expression in E. coli” value was “soluble”.

For the sequence “MGSDKIHHHHHHMIVVKPSPGSAQSIPANANGPKWDVGEAVSQLSWDDLRIIKTLSDCSNRAATAKKLGINVSTVSRRVAQVEKTLGVALFDHRKAGYLLTAEGVELRALAERVELDIVSVTRRVSRAGQGPLGKLRITTSDSLLLYFLTPIIADFKALNEGITIEVLVGNQTLSLARDESDIAVRATKKPTDTLVGRKLANIAWAAYGSVKQAAITDPFAEGQAWVSYSGGLCGLKATSYVECRVPSELISYRTDSVAAASAAIAAGLGFGFLPCMLGDITPGLVRAGPVVQELQDELWLLTHQDIRKSWRVKAFMTFCAAAVADLKPLVEGQQAIPAS”, the “soluble on expression in E. coli” value was “not soluble”.
